Results reported in paper PMC3538890 (Traffic (Copenhagen, Denmark), 2012).
Blank lines part the entries; values can stand above or below the binder they belong to.

Biological target: T1, CFP-GS27 (UniProt O14653 1-212)
T1 sequence (looked up): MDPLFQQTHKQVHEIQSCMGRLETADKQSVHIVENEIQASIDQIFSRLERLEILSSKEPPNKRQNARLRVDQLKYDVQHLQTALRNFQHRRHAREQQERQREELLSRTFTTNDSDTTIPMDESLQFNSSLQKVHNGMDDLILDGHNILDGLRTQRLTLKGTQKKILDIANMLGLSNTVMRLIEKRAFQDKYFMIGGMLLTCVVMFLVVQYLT
Assay: co-IP

- fold reduction of co-IP against full length COG6-myc: ~7 fold
B1: COG6-myc with deletion of residues 76-112 (natural protein, human, UniProt Q9Y2V7 1-657, looked up)
chain: MAEGSGEVVAVSATGAANGLNNGAGGTSATTCNPLSRKLHKILETRLDNDKEMLEALKALSTFFVENSLRTRRNLNCCQDMTSRLQAAKEQTQDLIVKTTKLQSESQKLEIRAQVADAFLSKFQLTSDEMSLLRGTREGPITEDFFKALGRVKQIHNDVKVLLRTNQQTAGLEIMEQMALLQETAYERLYRWAQSECRTLTQESCDVSPVLTQAMEALQDRPVLYKYTLDEFGTARRSTVVRGFIDALTRGGPGGTPRPIEMHSHDPLRYVGDMLAWLHQATASEKEHLEALLKHVTTQGVEENIQEVVGHITEGVCRPLKVRIEQVIVAEPGAVLLYKISNLLKFYHHTISGIVGNSATALLTTIEEMHLLSKKIFFNSLSLHASKLMDKVELPPPDLGPSSALNQTLMLLREVLASHDSSVVPLDARQADFVQVLSCVLDPLLQMCTVSASNLGTADMATFMVNSLYMMKTTLALFEFTDRRLEMLQFQIEAHLDTLINEQASYVLTRVGLSYIYNTVQQHKPEQGSLANMPNLDSVTLKAAMVQFDRYLSAPDNLLIPQLNFLLSATVKEQIVKQSTELVCRAYGEVYAAVMNPINEYKDPENILHRSPQQVQTLLS

- fold reduction of co-IP against full length COG6-myc: ~7 fold
B2: COG6-myc with deletion of residues 112-150 (natural protein, human, UniProt Q9Y2V7 1-657, looked up)
chain: MAEGSGEVVAVSATGAANGLNNGAGGTSATTCNPLSRKLHKILETRLDNDKEMLEALKALSTFFVENSLRTRRNLRGDIERKSLAINEEFVSIFKEVKEELESISEDVQAMQVADAFLSKFQLTSDEMSLLRGTREGPITEDFFKALGRVKQIHNDVKVLLRTNQQTAGLEIMEQMALLQETAYERLYRWAQSECRTLTQESCDVSPVLTQAMEALQDRPVLYKYTLDEFGTARRSTVVRGFIDALTRGGPGGTPRPIEMHSHDPLRYVGDMLAWLHQATASEKEHLEALLKHVTTQGVEENIQEVVGHITEGVCRPLKVRIEQVIVAEPGAVLLYKISNLLKFYHHTISGIVGNSATALLTTIEEMHLLSKKIFFNSLSLHASKLMDKVELPPPDLGPSSALNQTLMLLREVLASHDSSVVPLDARQADFVQVLSCVLDPLLQMCTVSASNLGTADMATFMVNSLYMMKTTLALFEFTDRRLEMLQFQIEAHLDTLINEQASYVLTRVGLSYIYNTVQQHKPEQGSLANMPNLDSVTLKAAMVQFDRYLSAPDNLLIPQLNFLLSATVKEQIVKQSTELVCRAYGEVYAAVMNPINEYKDPENILHRSPQQVQTLLS
